Earlier results as cited in US20110015587A1, “Irrigation Device and Method Using Same” (priority 2009, published 2011).

Tested on: fibroblasts
Conditions: in six hours; through motility of fibroblasts

B1: Lactoferrin (protein, UniProt P02788 20-710, looked up)
Lactotransferrin: GRRRSVQWCAVSQPEATKCFQWQRNMRKVRGPPVSCIKRDSPIQCIQAIAENRADAVTLDGGFIYEAGLAPYKLRPVAAEVYGTERQPRTHYYAVAVVKKGGSFQLNELQGLKSCHTGLRRTAGWNVPIGTLRPFLNWTGPPEPIEAAVARFFSASCVPGADKGQFPNLCRLCAGTGENKCAFSSQEPYFSYSGAFKCLRDGAGDVAFIRESTVFEDLSDEAERDEYELLCPDNTRKPVDKFKDCHLARVPSHAVVARSVNGKEDAIWNLLRQAQEKFGKDKSPKFQLFGSPSGQKDLLFKDSAIGFSRVPPRIDSGLYLGSGYFTAIQNLRKSEEEVAARRARVVWCAVGEQELRKCNQWSGLSEGSVTCSSASTTEDCIALVLKGEADAMSLDGGYVYTAGKCGLVPVLAENYKSQQSSDPDPNCVDRPVEGYLAVAVVRRSDTSLTWNSVKGKKSCHTAVDRTAGWNIPMGLLFNQTGSCKFDEYFSQSCAPGSDPRSNLCALCIGDEQGENKCVPNSNERYYGYTGAFRCLAENAGDVAFVKDVTVLQNTDGNNNEAWAKDLKLADFALLCLDGKRKPVTEARSCHLAMAPNHAVVSRMDKVERLKQVLLHQQAKFGRNGSDCPDKFCLFQSETKNLLFNDNTECLARLHGKTTYEKYLGPQYVAGITNLKKCSTSPLLEACEFLRK
- reduction of collagen gel surface area: 50%
